Assay results: article PMC4353692, “Structure of the Vacuolar H^+-ATPase Rotary Motor Reveals New Mechanistic Insights” (Structure(London, England:1993), 2015)

T1: Manduca sexta V-ATPase subunit H (Manduca sexta (endogenous in midgut), UniProt Q9U5N0 1-475)
T1 construct: V-type proton ATPase subunit H, Manduca sexta; source: purified from M. sexta midgut, as part of the V-ATPase holoenzyme
T1 sequence (looked up): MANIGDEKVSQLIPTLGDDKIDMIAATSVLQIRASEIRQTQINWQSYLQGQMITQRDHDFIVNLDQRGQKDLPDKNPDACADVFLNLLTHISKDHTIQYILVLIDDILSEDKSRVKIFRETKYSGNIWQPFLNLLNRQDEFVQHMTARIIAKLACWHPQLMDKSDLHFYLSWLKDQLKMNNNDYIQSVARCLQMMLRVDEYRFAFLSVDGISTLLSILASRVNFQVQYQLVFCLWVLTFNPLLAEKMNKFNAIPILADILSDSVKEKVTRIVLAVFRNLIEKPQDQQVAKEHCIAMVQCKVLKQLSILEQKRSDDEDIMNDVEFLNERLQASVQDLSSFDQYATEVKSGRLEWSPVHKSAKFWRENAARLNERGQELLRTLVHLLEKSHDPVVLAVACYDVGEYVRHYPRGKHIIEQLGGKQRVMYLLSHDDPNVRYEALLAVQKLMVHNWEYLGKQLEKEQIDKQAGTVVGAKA

B1: Manduca sexta V-ATPase subunit D (natural protein)
chain: not shown
notes: V-type proton ATPase subunit D, Manduca sexta; also called rotor axle; central axle; source: purified from M. sexta midgut, as part of the V-ATPase holoenzyme
B2: Manduca sexta V-ATPase subunit G (natural protein, Manduca sexta (endogenous in midgut), UniProt Q25532 1-117, looked up)
chain: MASQTHGIQQLLAAEKRAAEKVSEARKRKAKRLKQAKEEAQDEVEKYRQERERQFKEFEAKHMGTREGVAAKIDAETRIKIDEMNKMVQTQKEAVIKDVLNLVYDIKPELHINYRVV
notes: V-type proton ATPase subunit G, Manduca sexta; Three copies in the holoenzyme (stator filaments S1, S2, S3); also called part of the EG stator filaments S1-S3; source: purified from M. sexta midgut, as part of the V-ATPase holoenzyme
B3: Manduca sexta V-ATPase subunit E (natural protein, Manduca sexta (endogenous in midgut), UniProt P31402 1-226, looked up)
chain: MALSDADVQKQIKHMMAFIEQEANEKAEEIDAKAEEEFNIEKGRLVQQQRLKIMEYYEKKEKQVELQKKIQSSNMLNQARLKVLKVREDHVRNVLDEARKRLAEVPKDIKLYSDLLVTLIVQALFQLVEPTVTLRVRQADKALVESLLGRAQQDYKAKIKKDVVLKIDNENFLPPDTCGGIELIAAKGRIKISNTLESRLELIAQQLLPEIRNALFGRNPNRKFTD
notes: V-type proton ATPase subunit E, Manduca sexta; Three copies in the holoenzyme (stator filaments S1, S2, S3); also called part of the EG stator filaments S1-S3; source: purified from M. sexta midgut, as part of the V-ATPase holoenzyme

Columns and labels:
Experiment in all cases: cryo-EM structure; M. sexta V-ATPase holoenzyme purified from tissue, in C12E10; 9.4 Å reconstruction (gold standard FSC 0.143); homology models of the subunits flexibly fitted by MDFF; side chains not resolved
Details in all cases: both partners purified
[1] = molecular target: T2, Manduca sexta V-ATPase subunit A (Manduca sexta (endogenous in midgut), UniProt P31400 1-617)
T2 construct: V-type proton ATPase catalytic subunit A, Manduca sexta; Three copies in the holoenzyme, (AB)3; source: purified from M. sexta midgut, as part of the V-ATPase holoenzyme

[2] = molecular target: T3, Manduca sexta V-ATPase subunit B (Manduca sexta (endogenous in midgut), UniProt P31401 1-494)
T3 construct: V-type proton ATPase subunit B, Manduca sexta; Three copies in the holoenzyme, (AB)3; source: purified from M. sexta midgut, as part of the V-ATPase holoenzyme

[3] = molecular target: T4, Manduca sexta V-ATPase subunit C (Manduca sexta (endogenous in midgut), UniProt Q9U5N1 1-385)
T4 construct: V-type proton ATPase subunit C, Manduca sexta; source: purified from M. sexta midgut, as part of the V-ATPase holoenzyme

[4] = molecular target: B3
[5] = molecular target: T1, Manduca sexta V-ATPase subunit H

T4 sequence (Q9U5N1 whole entry): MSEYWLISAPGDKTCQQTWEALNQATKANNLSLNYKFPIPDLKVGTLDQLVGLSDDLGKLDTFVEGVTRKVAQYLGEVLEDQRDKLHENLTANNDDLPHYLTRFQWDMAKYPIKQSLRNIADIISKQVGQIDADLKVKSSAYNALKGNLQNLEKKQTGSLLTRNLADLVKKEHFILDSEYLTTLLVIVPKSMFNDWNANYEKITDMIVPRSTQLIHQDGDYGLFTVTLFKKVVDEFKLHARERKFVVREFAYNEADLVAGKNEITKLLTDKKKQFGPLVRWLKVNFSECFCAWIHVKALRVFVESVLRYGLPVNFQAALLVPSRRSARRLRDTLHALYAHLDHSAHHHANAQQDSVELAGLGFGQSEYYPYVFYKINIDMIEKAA
T2 sequence (P31400 whole entry): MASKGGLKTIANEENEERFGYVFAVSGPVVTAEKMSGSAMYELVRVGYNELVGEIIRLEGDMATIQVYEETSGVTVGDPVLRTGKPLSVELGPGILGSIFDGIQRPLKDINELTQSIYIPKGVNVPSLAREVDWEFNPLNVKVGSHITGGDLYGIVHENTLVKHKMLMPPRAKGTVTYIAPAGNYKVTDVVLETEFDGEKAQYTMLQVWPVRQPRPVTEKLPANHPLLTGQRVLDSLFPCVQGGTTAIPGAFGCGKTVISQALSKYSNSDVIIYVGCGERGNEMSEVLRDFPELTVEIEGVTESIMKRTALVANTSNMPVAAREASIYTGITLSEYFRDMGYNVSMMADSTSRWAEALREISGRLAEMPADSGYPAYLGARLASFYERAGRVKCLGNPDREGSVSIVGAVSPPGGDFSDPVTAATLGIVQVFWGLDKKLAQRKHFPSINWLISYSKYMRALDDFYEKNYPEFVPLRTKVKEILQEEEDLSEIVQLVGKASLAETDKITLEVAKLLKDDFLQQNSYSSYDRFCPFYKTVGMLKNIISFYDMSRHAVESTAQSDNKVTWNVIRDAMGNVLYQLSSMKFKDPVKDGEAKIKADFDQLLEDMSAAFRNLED
T3 sequence (P31401 whole entry): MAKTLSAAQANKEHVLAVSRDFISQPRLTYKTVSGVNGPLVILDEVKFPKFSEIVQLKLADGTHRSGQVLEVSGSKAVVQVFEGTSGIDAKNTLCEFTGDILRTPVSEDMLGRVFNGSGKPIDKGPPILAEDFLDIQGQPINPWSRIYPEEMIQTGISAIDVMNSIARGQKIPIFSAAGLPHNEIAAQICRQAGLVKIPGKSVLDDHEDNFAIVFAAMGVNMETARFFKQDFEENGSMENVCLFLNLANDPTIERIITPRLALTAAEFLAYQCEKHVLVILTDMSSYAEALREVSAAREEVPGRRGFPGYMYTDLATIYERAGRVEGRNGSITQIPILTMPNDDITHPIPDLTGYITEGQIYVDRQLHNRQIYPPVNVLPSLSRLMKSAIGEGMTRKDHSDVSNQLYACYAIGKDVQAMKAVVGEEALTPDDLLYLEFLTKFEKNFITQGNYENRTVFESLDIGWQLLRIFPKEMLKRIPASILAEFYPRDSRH

| Binder | binding result [1] | binding result [2] | binding result [3] | binding result [4] | binding result [5] |
| --- | --- | --- | --- | --- | --- |
| B1 | binds | binds | – | – | – |
| B2 | – | – | binds | binds | binds |
| B3 | – | – | binds | – | binds |
